How the values were obtained:
[1] = target: T1, NADH:quinone oxidoreductase (NQO-P78G) (Pseudomonas aeruginosa, UniProt Q9I4V0, P78G); experiment: anaerobic stopped-flow reductive half-reaction (flavin reduction at […] nm), hyperbolic fit; steady-state kinetics; type: biochemical
T1 construct: gene PA1024

[2] = tested on: COC1=C(OC)C(=O)C(C)=CC1=O; experiment: purified protein; type: biochemical, Pseudomonas aeruginosa; details: pH 6.0, 25.0 °C

T1 sequence (Q9I4V0 whole entry P78G): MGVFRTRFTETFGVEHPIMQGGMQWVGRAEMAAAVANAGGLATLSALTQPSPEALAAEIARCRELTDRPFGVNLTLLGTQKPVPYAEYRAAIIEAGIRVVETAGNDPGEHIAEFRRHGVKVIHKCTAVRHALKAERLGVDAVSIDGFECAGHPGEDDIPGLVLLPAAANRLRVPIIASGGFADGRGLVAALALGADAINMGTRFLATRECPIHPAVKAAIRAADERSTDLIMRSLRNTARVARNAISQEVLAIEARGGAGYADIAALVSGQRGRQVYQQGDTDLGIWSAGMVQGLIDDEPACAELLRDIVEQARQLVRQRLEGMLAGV

## NC(=O)C1=CN([C@@H]2O[C@H](COP(=O)(O)OP(=O)(O)OC[C@H]3O[C@@H](n4cnc5c(N)ncnc54)[C@H](O)[C@@H]3O)[C@@H](O)[C@H]2O)C=CC1 [NADH]
[1]
  Kd: 450 ± 40 µM

## NADH:quinone oxidoreductase (NQO-P78G) (Pseudomonas aeruginosa PAO1; P78G)
[2]; FMN active site pocket, binds the reduced enzyme (ping-pong bi-bi)
  Km: 10 ± 1 µM

## NADH:quinone oxidoreductase (NQO-WT) (Pseudomonas aeruginosa PAO1)
[2]
  Km: 35 ± 6 µM

Source: publication PMC12781114, “Mechanistic and Molecular Dynamics Studies Reveal that Increased Loop 3 Mobility Alters Substrate Capture in an NADH:Quinone Oxidoreductase” (Biochemistry, 2025)
